For this experiment, the target named is T1, gH ectodomain, FLAG-tagged and lacking its transmembrane anchor (gHecto^F_TBopt) (human cytomegalovirus (HCMV) strain TB40, UniProt P12824 24-709).
T1 sequence: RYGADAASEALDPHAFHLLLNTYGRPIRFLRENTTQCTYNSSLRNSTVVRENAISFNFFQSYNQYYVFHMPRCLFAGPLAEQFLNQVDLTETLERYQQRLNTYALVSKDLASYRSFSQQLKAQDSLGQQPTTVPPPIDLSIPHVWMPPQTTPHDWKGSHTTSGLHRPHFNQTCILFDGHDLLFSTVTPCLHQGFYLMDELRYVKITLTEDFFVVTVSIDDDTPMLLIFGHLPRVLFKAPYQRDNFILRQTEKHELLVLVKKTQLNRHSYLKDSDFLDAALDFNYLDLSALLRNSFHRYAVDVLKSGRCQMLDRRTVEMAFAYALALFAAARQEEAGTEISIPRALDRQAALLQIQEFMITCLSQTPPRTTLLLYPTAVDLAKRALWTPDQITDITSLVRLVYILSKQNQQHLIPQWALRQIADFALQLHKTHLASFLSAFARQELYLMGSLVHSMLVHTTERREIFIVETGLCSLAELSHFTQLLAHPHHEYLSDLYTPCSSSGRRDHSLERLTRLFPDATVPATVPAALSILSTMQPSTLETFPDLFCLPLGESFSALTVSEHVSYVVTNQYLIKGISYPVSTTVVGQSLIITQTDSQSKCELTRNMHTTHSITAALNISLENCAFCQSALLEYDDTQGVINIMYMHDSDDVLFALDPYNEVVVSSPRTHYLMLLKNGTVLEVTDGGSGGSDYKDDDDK
In words: His-tag purification from Expi293F supernatant after co-expression, Western blot (FIG. 2B). (Immunoblotting shows a protein as a band on a membrane.)

B1: octahistidine-tagged UL141 ectodomain (UL141ecto_3C His) (other)
chain: DIAEKMWAENYETTSPAPVLVAEGEQVTIPCTVMTHSWPMVSIRARFCRSHDGSDELILDAVKGHRLMNGLQYRLPYATWNFSQLHLGQIFSLTFNVSTDTAGMYECVLRNYSHGLIMQRFVILTQLETLSRPDEPCCTPALGRYSLGDQIWSPTPWRLRNHDCGMYRGFQRNYFYIGRADAEDCWKPACPDEEPDRCWTVIQRYRLPGDCYRSQPHPPKFLPVTPAPPADIDTGMSPWATR
notes: extracellular domain; not shown: C-terminal '3C' site and octahistidine tag
Turning to B1, the binding result is recorded as “binds”.

(Values after patent publication US20230293673A1 (LA JOLLA INSTITUTE FOR IMMUNOLOGY, published 2023).)
